Where two headings read alike, the source gives them in different places.

The source of these data is patent US20260098102A1 (NATIONAL UNIVERSITY CORPORATION KOBE UNIVERSITY, published 2026).

Assay [1] has as its target T1, human SIRPA_V1 protein (human, UniProt P78324 31-504).
T1 construct: Expressed on 293α cells from pcDNA3.2 V5-DEST or pFLAG V5-DEST (FLAG-tagged) vectors; also called human SIRPA Variant 1; hSIRPA V1
Briefly: blocking cell-based ELISA: peroxidase-labeled CD47-Fc (10,000 ng/mL) on 293α cells expressing SIRPA_V1; y axis = CD47-Fc signal in % of no antibody [i]. The procedure: (§1) After the culture supernatant of the human SIRPA and monkey SIRPA expression vector-introduced 293α cells prepared in Examples 5)-1 and 5)-2, respectively, was removed, 50 μL per well of cD13 (IgG2 and IgG4pf), cF44 (four different constant regions IgG1, IgG2, IgG4p, and IgG4pf), and cF63 (IgG2 and IgG4pf) diluted with 5% FBS-containing PBS to final concentrations of 0 to 10,000 ng/mL were added to each of pcDNA3.2 V5-DEST-SIRPA_V1, pcDNA3.2 V5-DEST-monkey SIRPA, and pcDNA3.2 V5-DEST-introduced 293α cells, immediately followed by addition of 50 μL per well of peroxidase-labeled CD47-Fc prepared in 5% FBS-containing PBS at a final concentration of 10,000 ng/ml, and the mixture was allowed to stand at 4° C. for one hour. Thereafter, the SIRPA-CD47 binding inhibitory activity was evaluated in the same manner as in 1)-6-3.
On the technique in general: In an ELISA, binding on a coated surface is turned into a signal by an enzyme label.

The target of assay [2] is T2, SIRPA_V1_IgV (human, UniProt P78324 31-149).
T2 construct: Secreted recombinant protein from FreeStyle 293F cells
In words: SPR Biacore T200, antibody captured, SIRPA_V1_IgV as analyte, 1:1 model. The procedure:
The dissociation constants of the cD13, cF44, and cF63 prepared in Example 4 against the human SIRPA_V1_IgV prepared in Example 1 were determined by a capture method comprising capturing a human chimeric antibody as a ligand and measuring an antigen as an analyte, using Biacore T200 (GE Healthcare Bioscience Corp.). HBS-EP+ (GE Healthcare Bioscience Corp.) was used as a running buffer, and CM5 (GE Healthcare Bioscience Corp.) was used as a sensor chip. In an amount of 1 μg/mL human chimeric antibody was added onto a chip at a rate of 10 μL/min for 60 seconds, a serially diluted solution of human SIRPA protein as an antigen (0.5 to 8 μg/mL) was added at a flow rate of 30 μL/min for 120 seconds, and the dissociation phase continued to be monitored for 600 seconds. As a regenerant, 3 M magnesium chloride (GE Healthcare Bioscience Corp.) was added at a flow rate of 20 μL/min for 30 seconds. For data analysis, the binding rate constant (ka), dissociation rate constant (kd), and dissociation constant (KD; KD=kd/ka) were calculated using a 1:1 binding model.
On the technique in general: SPR reads the build-up and loss of mass on a sensor chip optically.

In assay [3] the target is T3, monkey SIRPA protein (cynomolgus monkey, UniProt P78324 31-504 (human entry)).
T3 construct: Expressed on 293α cells from pcDNA3.2 V5-DEST or pFLAG V5-DEST vectors; also called cynomolgus monkey SIRPA; cSIRPA
T3 chain: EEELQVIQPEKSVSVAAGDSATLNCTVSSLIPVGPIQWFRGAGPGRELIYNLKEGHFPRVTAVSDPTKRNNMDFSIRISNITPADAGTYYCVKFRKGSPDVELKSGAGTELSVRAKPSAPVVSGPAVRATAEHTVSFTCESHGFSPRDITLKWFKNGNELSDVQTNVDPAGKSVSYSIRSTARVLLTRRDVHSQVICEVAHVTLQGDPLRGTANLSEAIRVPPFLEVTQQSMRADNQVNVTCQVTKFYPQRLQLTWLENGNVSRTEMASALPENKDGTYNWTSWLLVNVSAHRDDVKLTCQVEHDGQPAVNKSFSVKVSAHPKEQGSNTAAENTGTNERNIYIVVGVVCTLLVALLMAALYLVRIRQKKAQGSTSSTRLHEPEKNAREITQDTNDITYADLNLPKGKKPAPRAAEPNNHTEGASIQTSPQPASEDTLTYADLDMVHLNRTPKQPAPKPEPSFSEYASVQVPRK
In words: cell-based ELISA on 293α cells expressing FLAG-tagged monkey SIRPA; Abs 490 normalized to FLAG tag.

In assay [4] the target is T4, human SIRPA_V2 protein (human, UniProt P78324 31-504).
T4 construct: Expressed on 293α cells from pcDNA3.2 V5-DEST or pFLAG V5-DEST (FLAG-tagged) vectors; also called human SIRPA Variant 2; ECD variant (full-length, amino acids 1 to 504)
In words: blocking cell-based ELISA: peroxidase-labeled CD47-Fc (10,000 ng/mL) on 293α cells expressing SIRPA_V2; y axis = CD47-Fc signal in % of no antibody [ii].

For assay [5], the target named is T1, human SIRPA_V1 protein. In words: cell-based ELISA on 293α cells expressing FLAG-tagged SIRPA_V1; Abs 490 normalized to FLAG tag. The procedure:
(§2) The 293α cells [described in Example 1)-6] were prepared in a 10% FBS-containing DMEM medium to 5×10⁵ cells/mL. pFLAG V5-DEST-SIRPA_V1, pFLAG V5-DEST-SIRPA_V2, or pFLAG V5-DEST was introduced into the cells using Lipofectamine LTX (Invitrogen), followed by addition of 100 μL per well to a 96-well plate (Corning Incorporated), and cells were cultured overnight in the 10% FBS-containing DMEM medium at 37° C. under a 5% CO₂ condition. The obtained introduced cells were used for cell-based ELISA in a state that they adhered to each other. After the culture supernatant was removed, 50 μL per well of the cD13 (IgG2 and IgG4pf), cF44 (IgG1, IgG2, IgG4p, and IgG4pf), and cF63 (IgG2 and IgG4pf) antibodies prepared in Examples 3 and 4 were added to each of pFLAG V5-DEST-SIRPA_V1, pFLAG V5-DEST-SIRPA_V2, or pFLAG V5-DEST-introduced cells at final concentrations of 0 to 10,000 ng/mL, and the mixture was allowed to stand at 4° C. for one hour. Further, 50 μL per well of anti-FLAG M2 antibody (SIGMA) diluted with 5% FBS-containing PBS to a final concentration of 10,000 ng/mL was added to a well for detecting expression of each SIRPA construct, and the mixture was allowed to stand at 4° C. for one hour. The cells in the well were washed once with 5% FBS-containing PBS, followed by addition of Peroxidase AffiniPure F(ab′)₂ Fragment Goat Anti-Human IgG, Fcγ Fragment Specific (Jackson ImmunoResearch) diluted 1000-fold with 5% FBS-containing PBS, and the mixture was allowed to stand at 4° C. for one hour. The cells in the well were washed five times with 5% FBS-containing PBS, followed by addition of 100 μL per well of an OPD coloration solution [o-phenylenediamine dihydrochloride (Wako Pure Chemical Industries, Ltd.) and H₂O₂ were dissolved in an OPD solution (0.05 M trisodium citrate, 0.1 M disodium hydrogen phosphate dodecahydrate, pH 4.5) at 0.4 mg/mL and 0.6% (v/v), respectively]. A coloration reaction was performed with stirring occasionally, 100 μL per well of 1 M HCl was added to terminate the coloration reaction, and then absorbance at 490 nm was measured with a plate reader ARVO (PerkinElmer Inc.). Binding of the human chimeric anti-human SIRPA antibodies to each construct was standardized by expression of the FLAG tag.
Target sequence in this assay (P78324 31-504 limits assumed): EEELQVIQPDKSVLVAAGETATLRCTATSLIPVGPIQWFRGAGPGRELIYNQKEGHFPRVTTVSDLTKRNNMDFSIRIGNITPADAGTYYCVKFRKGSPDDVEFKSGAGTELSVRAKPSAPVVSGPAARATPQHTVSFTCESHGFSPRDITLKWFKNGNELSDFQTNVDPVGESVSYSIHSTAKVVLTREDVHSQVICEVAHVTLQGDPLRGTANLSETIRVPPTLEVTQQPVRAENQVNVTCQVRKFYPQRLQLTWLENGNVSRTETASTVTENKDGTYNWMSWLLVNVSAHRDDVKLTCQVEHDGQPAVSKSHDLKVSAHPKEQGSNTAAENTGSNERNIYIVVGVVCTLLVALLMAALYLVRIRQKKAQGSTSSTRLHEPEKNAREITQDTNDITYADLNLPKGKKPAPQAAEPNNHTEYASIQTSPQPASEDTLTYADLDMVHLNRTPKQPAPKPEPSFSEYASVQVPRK

Assay [6] addresses T4, human SIRPA_V2 protein. In words: blocking cell-based ELISA: peroxidase-labeled CD47-Fc (10,000 ng/mL) on 293α cells expressing SIRPA_V2; y axis = CD47-Fc signal in % of no antibody [ii]. The source holds these as a separate data set.
Target sequence in this assay (P78324 other isoform, or with tags, fused parts or gaps limits assumed): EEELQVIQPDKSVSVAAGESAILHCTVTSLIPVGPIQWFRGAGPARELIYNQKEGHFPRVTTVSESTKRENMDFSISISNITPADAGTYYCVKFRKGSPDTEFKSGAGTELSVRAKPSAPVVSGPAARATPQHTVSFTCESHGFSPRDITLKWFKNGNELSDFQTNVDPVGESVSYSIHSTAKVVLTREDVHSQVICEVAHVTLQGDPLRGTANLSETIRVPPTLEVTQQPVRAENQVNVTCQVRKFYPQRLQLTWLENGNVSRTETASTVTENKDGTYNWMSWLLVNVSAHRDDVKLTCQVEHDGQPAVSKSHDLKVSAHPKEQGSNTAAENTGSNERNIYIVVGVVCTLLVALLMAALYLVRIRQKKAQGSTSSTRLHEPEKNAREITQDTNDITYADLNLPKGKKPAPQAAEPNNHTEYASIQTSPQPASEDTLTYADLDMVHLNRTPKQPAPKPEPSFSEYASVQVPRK
Assay [7] concerns the target T4, human SIRPA_V2 protein. In words: cell-based ELISA on 293α cells expressing FLAG-tagged SIRPA_V2; Abs 490 normalized to FLAG tag. The procedure: as §2
For assay [8], the target named is T1, human SIRPA_V1 protein. In words: blocking cell-based ELISA: peroxidase-labeled CD47-Fc (10,000 ng/mL) on 293α cells expressing SIRPA_V1; y axis = CD47-Fc signal in % of no antibody [i]. The procedure:
as §1
Target sequence in this assay (P78324 31-504 limits assumed): as the sequence (P78324 31-504 limits assumed) above
The source holds these as a separate data set.

T2 sequence (P78324 other isoform, or with tags, fused parts or gaps limits assumed): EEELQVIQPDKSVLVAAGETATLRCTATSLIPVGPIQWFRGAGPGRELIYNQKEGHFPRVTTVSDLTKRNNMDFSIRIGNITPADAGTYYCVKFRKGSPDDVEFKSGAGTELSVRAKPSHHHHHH

B1: human chimeric anti-SIRPA antibody cF63 (antibody, human IgG4 S228P, lambda, F234A L235A, V domains shown)
VH: QVQLKESGPGLVQPSETLSLTCTVSGFSLASYSLSWVRQPSGKGPEWMGRMYYDGDTAYNSALKSRLSISRDTSKNQVFLKMNSLQTDDTGTYYCTRDRSMFGTDYPHWYFDFWGPGTMVTVSS
VL: QFTLTQPKSVSGALRSTITIPCERSSGDIGDSYVSWYQRHLGRPPINVIYADDQRPSEVSDRFSGSIDSSSNSASLTITNLQMDDEADYFCQSYDSKIDIFGGGTKLTVLG
notes: Human IgG4proFALA heavy chain, human lambda light chain; also called cF63 (IgG4pf); human chimeric antibody F63
For B1, the “IC50 (read off the curve)” value was around 0.1 µg/mL in assay [1] and around 0.2 µg/mL in assay [4]. Moreover, in assay [2], binding was put at a Kd of 166 pM. In addition, the figures for the 50% effective concentration (EC50 (read off the curve)) in assay [3] and in assay [5] were around 0.09 µg/mL and around 0.05 µg/mL, respectively.

B2: human chimeric anti-SIRPA antibody cF44 (antibody, human IgG4 S228P, kappa, F234A L235A, V domains shown)
VH: EVQLVESGGGLVQPGRSLKLSCAASGFTFSNYYMAWVRQAPTKGLEWVTYITTGGGSTYFRDSVKGRFTISRDNAESTLYLQMDSLRSEDTATYYCTAANYGGSYFDYWGQGVMVTVSS
VL: DVQMTQSPSNLAASPGESVSINCKASKSISKYLAWYQQKPGKANKLLIYSGSTLQSGTPSRFSGSGSGTDFTLTIRNLEPEDFGLYYCQQHNEYPPTFGAGTKLELKR
notes: Human IgG4proFALA heavy chain, human kappa light chain; also called cF44 (IgG4pf); human chimeric antibody F44
B2: the “IC50 (read off the curve)” value in assay [6] was around 0.4 µg/mL; in assay [1], around 0.6 µg/mL; in assay [4], around 0.4 µg/mL; in assay [8] it was around 0.6 µg/mL. In assay [2], this molecule showed a Kd of 1720 pM. In addition, the “EC50 (read off the curve)” value in assay [7] was around 0.05 µg/mL; in assay [3], around 0.08 µg/mL; in assay [5], around 0.05 µg/mL.

In general, Kd refers to a measure of binding affinity in units of concentration. The term EC50 (read off the curve) denotes the concentration at which the effect is half-maximal.
